How the values were obtained:
[1] = Pharmacokinetics of Free PTH after 10 daily s.c. doses of TransCon PTH (MAD cohorts); settings: for Free PTH AUC0-24h / Free PTH t½ / Free PTH Cmax: geometric mean (CV%); for Free PTH tmax: median (min-max)
Experimental: Subjects attended a screening visit; those who met eligibility criteria were randomly assigned to a SAD or MAD cohort (n = 10/cohort; eight active and two placebo) and received a single or multiple dose(s) of TransCon PTH, respectively, via a syringe and 31G 8‐mm needle s.c. to the abdomen. Single TransCon PTH doses ranged from 3.5 to 124 μg PTH(1‐34) (containing PTH(1‐34) [Bachem AG, Bubendorf, Switzerland], identical to the first 34 amino acids of rhPTH). Multiple TransCon PTH doses administered daily for 10 days ranged from 3.5 to 24 μg PTH(1‐34)/day.
The primary PK endpoints therefore included Free PTH (defined as the sum of Free PTH(1‐34) and Free PTH(1‐33)) as well as TransCon PTH.
The PK samples were analyzed by PRA Health Sciences (Assens, the Netherlands); Free PTH was quantified using protein precipitation, liquid‐liquid extraction, and solid‐phase extraction followed by ultra high‐performance liquid chromatography with tandem mass spectrometry detection measuring the two peptides, PTH(1‐34) and PTH(1‐33), by collection of both transitions simultaneously. Free PTH was calculated only if samples contained quantifiable levels of both Free PTH(1‐34) and Free PTH(1‐33); ie, above 1.40 and 0.958 pg/mL for Free PTH(1‐34) and Free PTH(1‐33), respectively. No lower limit of quantification was calculated for Free PTH because the ratio between Free PTH(1‐34) and Free PTH(1‐33) is not constant.
The PK parameters were calculated using Phoenix WinNonlin, version 6.4 (Certara USA, Inc., Princeton, NJ, USA). For Free PTH, tmax was defined as the time to maximum observed concentration and Cmax was defined as the maximum observed concentration. […] Peak‐to‐trough was calculated as the ratio of Cmax to C24h at steady‐state.

healthy adults [2] = experiment: Pharmacodynamics: bone turnover markers (serum BSAP, P1NP, CTx; urine NTx); assay type: in vivo, human; settings: MAD
Experimental: The PD endpoints included albumin‐adjusted sCa, fractional excretion of calcium, sP, renal tubular maximum reabsorption of phosphate/glomerular filtration rate (TMP/GFR), intact endogenous PTH(1‐84), osteoblastic bone formation markers (serum bone‐specific alkaline phosphatase [BSAP] and P1NP), osteoclastic bone resorption markers (urine NTx and serum CTx), sMg, and 1,25‐dihydroxyvitamin D. PK samples were collected predose and at regular intervals postdose through 96 hours for the SAD cohorts and through day14 for the MAD cohorts.

healthy adults [3] = experiment: Safety and tolerability: adverse events in SAD and MAD cohorts; settings: for Any AE (%) / Any SAE (%) / Any drug-related AE (%) / Any moderate or severe AE (%): number of subjects (% of cohort); for Dizziness, light-headedness (including postural/orthostatic dizziness, syncope, presyncope) (%) / Tachycardia/palpitations (%): at least possibly related, number of subjects (%)
Experimental: Subjects attended a screening visit; those who met eligibility criteria were randomly assigned to a SAD or MAD cohort (n = 10/cohort; eight active and two placebo) and received a single or multiple dose(s) of TransCon PTH, respectively, via a syringe and 31G 8‐mm needle s.c. to the abdomen. […] Multiple TransCon PTH doses administered daily for 10 days ranged from 3.5 to 24 μg PTH(1‐34)/day. Throughout drug administration and for 4 days following the final dose, subjects remained housed for laboratory tests and safety monitoring.
At screening, demographic information, medical history, and concomitant medications, vital signs with height and weight, hematology, blood chemistry (including sCa, sP, and sMg), intact endogenous PTH(1‐84), 1,25‐dihydroxyvitamin D, and urine samples were collected. In addition, a limited physical examination and electrocardiogram (ECG) were performed.
Via regular vital sign checks, physical examinations, and safety laboratory tests, subjects were also monitored for adverse events (AEs) throughout the trial, including injection site reactions (erythema, ecchymosis, edema, pruritus, and pain).

[4] = MAD, 12 μg PTH(1-34)/day s.c. x 10 days, n = 6
[5] = MAD, 16 μg PTH(1-34)/day s.c. x 10 days, n = 7
[6] = MAD, 20 μg PTH(1-34)/day s.c. x 10 days, n = 6
[7] = MAD, 24 μg PTH(1-34)/day s.c. x 10 days, n = 3
[8] = MAD cohorts administered TransCon PTH (n = 50)
[9] = MAD, 3.5 μg/day s.c. x 10 days, n = 8
[10] = MAD, 3.5 μg/day x 10 days, n = 8
[11] = MAD, 7 μg/day s.c. x 10 days, n = 8
[12] = MAD, 12 μg/day s.c. x 10 days, n = 10
[13] = MAD, 16 μg/day s.c. x 10 days, n = 8
[14] = MAD, 16 μg/day x 10 days, n = 8
[15] = MAD, 20 μg/day s.c. x 10 days, n = 8
[16] = MAD, 20 μg/day x 10 days, n = 8
[17] = MAD, 24 μg/day s.c. x 10 days, n = 8
[18] = MAD, 24 μg/day x 10 days, n = 8

TransCon PTH: long-acting, essentially inactive prodrug: PTH(1-34) transiently bound to an inert 40 kDa mPEG carrier via a proprietary autocleaving linker
Free PTH AUC0-24h ([1]; MAD, 12 μg PTH(1-34)/day s.c. x 10 days, healthy adults, plasma, UHPLC-MS/MS, n = 5): 122 (13.4) (n = 5) h*pg/mL
Free PTH t½ ([1]; MAD, 12 μg PTH(1-34)/day s.c. x 10 days, n = 4): 64.8 (39.2) (n = 4) h
Free PTH Cmax [1, 4]: 6.24 (13.1) (n = 6) pg/mL
Free PTH tmax [1, 4]: 4.0 (4.0–16.0) (n = 6) h
Free PTH t½ ([1]; MAD, 16 μg PTH(1-34)/day s.c. x 10 days, n = 4): 60.0 (20.3) (n = 4) h
Free PTH AUC0-24h ([1]; MAD, 16 μg PTH(1-34)/day s.c. x 10 days, n = 5): 152 (9.4) (n = 5) h*pg/mL
Free PTH Cmax [1, 5]: 6.87 (16.8) (n = 7) pg/mL
Free PTH tmax [1, 5]: 8.0 (4.0–12.0) (n = 7) h
Free PTH t½ ([1]; MAD, 20 μg PTH(1-34)/day s.c. x 10 days, n = 5): 51.7 (44.5) (n = 5) h
Free PTH AUC0-24h [1, 6]: 165 (21.7) (n = 6) h*pg/mL
Free PTH Cmax [1, 6]: 8.30 (21.4) (n = 6) pg/mL
Free PTH tmax [1, 6]: 6.1 (4.0–16.1) (n = 6) h
Free PTH AUC0-24h [1, 7]: 231 (24.2) (n = 3) h*pg/mL
Free PTH Cmax [1, 7]: 11.1 (27.6) (n = 3) pg/mL
Free PTH t½ [1, 7]: 69.0 (22.3) (n = 3) h
Free PTH tmax [1, 7]: 7.9 (4.0–12.0) (n = 3) h
Free PTH level ([1]; MAD, TransCon PTH 12 μg PTH(1-34)/day): 5 pg/mL
mean effective half-life of Free PTH ([1]; after multiple daily s.c. dosings, healthy adults): approximately 60 hours
serum BSAP (osteoblastic bone formation marker) (healthy adults [2]; 10 days of administration, compared to placebo): neither the osteoblastic bone formation marker, BSAP (Fig. 8) or P1NP (data not shown), increased
P1NP (osteoblastic bone formation marker) (healthy adults [2]; 10 days of administration, compared to placebo, data not shown): neither the osteoblastic bone formation marker, BSAP (Fig. 8) or P1NP (data not shown), increased
time course of serum CTx levels (healthy adults [2]; Free PTH at steady-state until at least day 11): declined from day 8 to baseline by day 13
serum CTx (osteoclastic bone resorption marker) (healthy adults [2]; over 10 days of administration, compared to placebo): increased modestly
urine NTx (osteoclastic bone resorption marker) (healthy adults [2]; over 10 days, data not shown): no consistent increase
treatment-emergent AE: catheter site phlebitis (healthy adults [3]; [8]): 8%
treatment-emergent AE: dizziness (healthy adults [3]; [8]): 10%
treatment-emergent AE: headache (healthy adults [3]; [8]): 12%
treatment-emergent AE: musculoskeletal pain (healthy adults [3]; [8]): 6%
treatment-emergent AE: palpitations (healthy adults [3]; [8]): 8%
treatment-emergent AE: postural dizziness (healthy adults [3]; [8]): 6%
treatment-emergent AE: presyncope (healthy adults [3]; [8]): 6%
Any AE (%) (healthy adults [3]; [9]): 6 (75.0) %
Any SAE (%) (healthy adults [3]; [9]): 0 (0) %
Any drug-related AE (%) (healthy adults [3]; [9]): 1 (12.5) %
Any moderate or severe AE (%) (healthy adults [3]; [9]): 2 (25.0) %
Dizziness, light-headedness (including postural/orthostatic dizziness, syncope, presyncope) (%) (healthy adults [3]; [10]): 1 (12.5) %
Tachycardia/palpitations (%) (healthy adults [3]; [10]): 1 (12.5) %
Any AE (%) (healthy adults [3]; [11]): 6 (75.0) %
Any SAE (%) (healthy adults [3]; [11]): 0 (0) %
Any drug-related AE (%) (healthy adults [3]; [11]): 2 (25.0) %
Any moderate or severe AE (%) (healthy adults [3]; [11]): 3 (37.5) %
Dizziness, light-headedness (including postural/orthostatic dizziness, syncope, presyncope) (%) (healthy adults [3]; MAD, 7 μg/day x 10 days, n = 8): 1 (12.5) %
Tachycardia/palpitations (%) (healthy adults [3]; MAD, 7 μg/day x 10 days, n = 8): 0 (0.0) %
Any AE (%) (healthy adults [3]; [12]): 7 (70.0) %
Any SAE (%) (healthy adults [3]; [12]): 1 (10.0) %
Any drug-related AE (%) (healthy adults [3]; [12]): 3 (30.0) %
Any moderate or severe AE (%) (healthy adults [3]; [12]): 2 (20.0) %
Tachycardia/palpitations (%) (healthy adults [3]; MAD, 12 μg/day x 10 days, n = 10): 0 (0.0) %
Any AE (%) (healthy adults [3]; [13]): 4 (50.0) %
Any SAE (%) (healthy adults [3]; [13]): 0 (0) %
Any drug-related AE (%) (healthy adults [3]; [13]): 2 (25.0) %
Any moderate or severe AE (%) (healthy adults [3]; [13]): 1 (12.5) %
Dizziness, light-headedness (including postural/orthostatic dizziness, syncope, presyncope) (%) (healthy adults [3]; [14]): 0 (0.0) %
Tachycardia/palpitations (%) (healthy adults [3]; [14]): 0 (0.0) %
Any AE (%) (healthy adults [3]; [15]): 3 (37.5) %
Any SAE (%) (healthy adults [3]; [15]): 0 (0) %
Any drug-related AE (%) (healthy adults [3]; [15]): 2 (25.0) %
Any moderate or severe AE (%) (healthy adults [3]; [15]): 1 (12.5) %
Dizziness, light-headedness (including postural/orthostatic dizziness, syncope, presyncope) (%) (healthy adults [3]; [16]): 0 (0.0) %
Tachycardia/palpitations (%) (healthy adults [3]; [16]): 1 (12.5) %
subjects reporting vasodilatory or potentially vasodilatory AEs (healthy adults [3]; MAD, 24 μg PTH(1-34)/day cohort, four of eight, placebo two of two (100%)): 50%
albumin-adjusted sCa in a subject with symptomatic hypercalcemia (healthy adults [3]; MAD, 24 μg PTH(1-34)/day, one of three males, discontinued dosing after the sixth dose): 11.68 mg/dL
albumin-adjusted sCa in an asymptomatic subject on day 11 (healthy adults [3]; MAD, 24 μg PTH(1-34)/day, single subject): 11.76 mg/dL
Any AE (%) (healthy adults [3]; [17]): 7 (87.5) %
Any SAE (%) (healthy adults [3]; [17]): 0 (0) %
Any drug-related AE (%) (healthy adults [3]; [17]): 6 (75.0) %
Any moderate or severe AE (%) (healthy adults [3]; [17]): 5 (62.5) %
Dizziness, light-headedness (including postural/orthostatic dizziness, syncope, presyncope) (%) (healthy adults [3]; [18]): 2 (25.0) %
Tachycardia/palpitations (%) (healthy adults [3]; [18]): 3 (37.5) %

From article PMC9328939, “A Randomized Double‐Blind Placebo‐Controlled First‐In‐Human Phase 1 Trial of TransCon PTH in Healthy Adults” (Journal of Bone and Mineral Research, 2020)
